# Measurements taken from US20120178694A1 (University of Pennsylvania, published 2012).
# Bridge positions count the residues as written; N and C are the ends. Square brackets hold non-standard residues; d marks the D form. Trp(1-Me) = Cn1cc(C[C@H](N)C(=O)O)c2ccccc21; NMeW = CN[C@@H](Cc1c[nH]c2ccccc12)C(=O)O; NMeH = CN[C@@H](Cc1c[nH]cn1)C(=O)O; NMeR = CN[C@@H](CCCNC(=N)N)C(=O)O; NMeQ = CN[C@@H](CCC(N)=O)C(=O)O; NMeD = CN[C@@H](CC(=O)O)C(=O)O; NMeC = CN[C@@H](CS)C(=O)O; Sar = CNCC(=O)O
# B1: Ac-I[CVYQDWGAHR(NMe)C]T-NH2 (peptide)
# peptide: Ac-ICVYQDWGAHR[NMeC]T-NH2
# modifications: disulfide 2-12
# SMILES: CC[C@H](C)[C@H](NC(C)=O)C(=O)N[C@H]1CSSC[C@@H](C(=O)N[C@H](C(N)=O)[C@@H](C)O)N(C)C(=O)[C@H](CCCNC(=N)N)NC(=O)[C@H](Cc2c[nH]cn2)NC(=O)[C@H](C)NC(=O)CNC(=O)[C@H](Cc2c[nH]c3ccccc23)NC(=O)[C@H](CC(=O)O)NC(=O)[C@H](CCC(N)=O)NC(=O)[C@H](Cc2ccc(O)cc2)NC(=O)[C@H](C(C)C)NC1=O
# B2: Ac-I[CVYQD(NMe)WGAHRC]T-NH2 (peptide)
# peptide: Ac-ICVYQD[NMeW]GAHRCT-NH2
# modifications: disulfide 2-12
# SMILES: CC[C@H](C)[C@H](NC(C)=O)C(=O)N[C@H]1CSSC[C@@H](C(=O)N[C@H](C(N)=O)[C@@H](C)O)NC(=O)[C@H](CCCNC(=N)N)NC(=O)[C@H](Cc2c[nH]cn2)NC(=O)[C@H](C)NC(=O)CNC(=O)[C@H](Cc2c[nH]c3ccccc23)N(C)C(=O)[C@H](CC(=O)O)NC(=O)[C@H](CCC(N)=O)NC(=O)[C@H](Cc2ccc(O)cc2)NC(=O)[C@H](C(C)C)NC1=O
# B3: Ac-I[CVYQDW(NMe)GAHRC]T-NH2 (peptide)
# peptide: Ac-ICVYQDW[Sar]AHRCT-NH2
# modifications: disulfide 2-12
# SMILES: CC[C@H](C)[C@H](NC(C)=O)C(=O)N[C@H]1CSSC[C@@H](C(=O)N[C@H](C(N)=O)[C@@H](C)O)NC(=O)[C@H](CCCNC(=N)N)NC(=O)[C@H](Cc2c[nH]cn2)NC(=O)[C@H](C)NC(=O)CN(C)C(=O)[C@H](Cc2c[nH]c3ccccc23)NC(=O)[C@H](CC(=O)O)NC(=O)[C@H](CCC(N)=O)NC(=O)[C@H](Cc2ccc(O)cc2)NC(=O)[C@H](C(C)C)NC1=O
# B4: Ac-I[CVY(NMe)QDWGAHRC]T-NH2 (peptide)
# peptide: Ac-ICVY[NMeQ]DWGAHRCT-NH2
# modifications: disulfide 2-12
# SMILES: CC[C@H](C)[C@H](NC(C)=O)C(=O)N[C@H]1CSSC[C@@H](C(=O)N[C@H](C(N)=O)[C@@H](C)O)NC(=O)[C@H](CCCNC(=N)N)NC(=O)[C@H](Cc2c[nH]cn2)NC(=O)[C@H](C)NC(=O)CNC(=O)[C@H](Cc2c[nH]c3ccccc23)NC(=O)[C@H](CC(=O)O)NC(=O)[C@H](CCC(N)=O)N(C)C(=O)[C@H](Cc2ccc(O)cc2)NC(=O)[C@H](C(C)C)NC1=O
# B5: peptide 16 (peptide)
# peptide: Ac-ICV[Trp(1-Me)]QDWGAHRCI-NH2
# modifications: disulfide 2-12
# SMILES: CC[C@H](C)[C@H](NC(=O)[C@@H]1CSSC[C@H](NC(=O)[C@@H](NC(C)=O)[C@@H](C)CC)C(=O)N[C@@H](C(C)C)C(=O)N[C@@H](Cc2cn(C)c3ccccc23)C(=O)N[C@@H](CCC(N)=O)C(=O)N[C@@H](CC(=O)O)C(=O)N[C@@H](Cc2c[nH]c3ccccc23)C(=O)NCC(=O)N[C@@H](C)C(=O)N[C@@H](Cc2c[nH]cn2)C(=O)N[C@@H](CCCNC(=N)N)C(=O)N1)C(N)=O
# notes: Peptide 14 scaffold with Gly^8, Ile^13; also called 16 (6)
# B6: Ac-I[CVYQDWGA(NMe)HRC]T-NH2 (peptide)
# peptide: Ac-ICVYQDWGA[NMeH]RCT-NH2
# modifications: disulfide 2-12
# SMILES: CC[C@H](C)[C@H](NC(C)=O)C(=O)N[C@H]1CSSC[C@@H](C(=O)N[C@H](C(N)=O)[C@@H](C)O)NC(=O)[C@H](CCCNC(=N)N)NC(=O)[C@H](Cc2c[nH]cn2)N(C)C(=O)[C@H](C)NC(=O)CNC(=O)[C@H](Cc2c[nH]c3ccccc23)NC(=O)[C@H](CC(=O)O)NC(=O)[C@H](CCC(N)=O)NC(=O)[C@H](Cc2ccc(O)cc2)NC(=O)[C@H](C(C)C)NC1=O
# B7: Ac-I[CVYQ(NMe)DWGAHRC]T-NH2 (peptide)
# peptide: Ac-ICVYQ[NMeD]WGAHRCT-NH2
# modifications: disulfide 2-12
# SMILES: CC[C@H](C)[C@H](NC(C)=O)C(=O)N[C@H]1CSSC[C@@H](C(=O)N[C@H](C(N)=O)[C@@H](C)O)NC(=O)[C@H](CCCNC(=N)N)NC(=O)[C@H](Cc2c[nH]cn2)NC(=O)[C@H](C)NC(=O)CNC(=O)[C@H](Cc2c[nH]c3ccccc23)NC(=O)[C@H](CC(=O)O)N(C)C(=O)[C@H](CCC(N)=O)NC(=O)[C@H](Cc2ccc(O)cc2)NC(=O)[C@H](C(C)C)NC1=O
# B8: Peptide 17-ABP (peptide)
# peptide: ICVWQDWGAHRCIK
# chain: RLIEDICLPRWGCLWEDD
# modifications: propiolic acid on the N-terminus, joined by triazole to the azido-Lys of the peptide 17 chain; N-terminal acetyl; 1-methyl-Trp at 4; N-methyl-Gly (Sar) at 8; disulfide Cys2-Cys12 (cyclic); two mini-PEG-3 spacers between Ile13 and a C-terminal Lys-NH2; 2-azidoacetyl on the Lys side chain, joined by azide-alkyne cycloaddition (triazole) to the ABP
# B9: Ac-I[CVYQDWGAH(NMe)RC]T-NH2 (peptide)
# peptide: Ac-ICVYQDWGAH[NMeR]CT-NH2
# modifications: disulfide 2-12
# SMILES: CC[C@H](C)[C@H](NC(C)=O)C(=O)N[C@H]1CSSC[C@@H](C(=O)N[C@H](C(N)=O)[C@@H](C)O)NC(=O)[C@H](CCCNC(=N)N)N(C)C(=O)[C@H](Cc2c[nH]cn2)NC(=O)[C@H](C)NC(=O)CNC(=O)[C@H](Cc2c[nH]c3ccccc23)NC(=O)[C@H](CC(=O)O)NC(=O)[C@H](CCC(N)=O)NC(=O)[C@H](Cc2ccc(O)cc2)NC(=O)[C@H](C(C)C)NC1=O
# B10: Peptide 17-ABM (peptide)
# peptide: ICVWQDWGAHRCIK
# modifications: not fully specified; N-terminal acetyl; 1-methyl-Trp at 4; N-methyl-Gly (Sar) at 8; disulfide Cys2-Cys12 (cyclic); two mini-PEG-3 spacers between Ile13 and a C-terminal Lys-NH2; albumin-binding small molecule (ABM) on the Lys side chain
# B11: peptide 22 (peptide)
# peptide: Ac-ICV[Trp(1-Me)]QDW[Sar]AHRCH-NH2
# modifications: disulfide 2-12
# SMILES: CC[C@H](C)[C@H](NC(C)=O)C(=O)N[C@H]1CSSC[C@@H](C(=O)N[C@@H](Cc2c[nH]cn2)C(N)=O)NC(=O)[C@H](CCCNC(=N)N)NC(=O)[C@H](Cc2c[nH]cn2)NC(=O)[C@H](C)NC(=O)CN(C)C(=O)[C@H](Cc2c[nH]c3ccccc23)NC(=O)[C@H](CC(=O)O)NC(=O)[C@H](CCC(N)=O)NC(=O)[C@H](Cc2cn(C)c3ccccc23)NC(=O)[C@H](C(C)C)NC1=O
# B12: Ac-I[(NMe)CVYQDWGAHRC]T-NH2 (peptide)
# peptide: Ac-I[NMeC]VYQDWGAHRCT-NH2
# modifications: disulfide 2-12
# SMILES: CC[C@H](C)[C@H](NC(C)=O)C(=O)N(C)[C@H]1CSSC[C@@H](C(=O)N[C@H](C(N)=O)[C@@H](C)O)NC(=O)[C@H](CCCNC(=N)N)NC(=O)[C@H](Cc2c[nH]cn2)NC(=O)[C@H](C)NC(=O)CNC(=O)[C@H](Cc2c[nH]c3ccccc23)NC(=O)[C@H](CC(=O)O)NC(=O)[C@H](CCC(N)=O)NC(=O)[C@H](Cc2ccc(O)cc2)NC(=O)[C@H](C(C)C)NC1=O
# B13: peptide 23 (peptide)
# peptide: Ac-ICV[Trp(1-Me)]QDW[Sar]AHRCF-NH2
# modifications: disulfide 2-12
# SMILES: CC[C@H](C)[C@H](NC(C)=O)C(=O)N[C@H]1CSSC[C@@H](C(=O)N[C@@H](Cc2ccccc2)C(N)=O)NC(=O)[C@H](CCCNC(=N)N)NC(=O)[C@H](Cc2c[nH]cn2)NC(=O)[C@H](C)NC(=O)CN(C)C(=O)[C@H](Cc2c[nH]c3ccccc23)NC(=O)[C@H](CC(=O)O)NC(=O)[C@H](CCC(N)=O)NC(=O)[C@H](Cc2cn(C)c3ccccc23)NC(=O)[C@H](C(C)C)NC1=O
# Columns and labels:
# [1] = target: T1, C3 purified from fresh human plasma (human, UniProt P01024 23-1663); test: cell-based or functional assay
# T1 sequence (P01024 23-1663): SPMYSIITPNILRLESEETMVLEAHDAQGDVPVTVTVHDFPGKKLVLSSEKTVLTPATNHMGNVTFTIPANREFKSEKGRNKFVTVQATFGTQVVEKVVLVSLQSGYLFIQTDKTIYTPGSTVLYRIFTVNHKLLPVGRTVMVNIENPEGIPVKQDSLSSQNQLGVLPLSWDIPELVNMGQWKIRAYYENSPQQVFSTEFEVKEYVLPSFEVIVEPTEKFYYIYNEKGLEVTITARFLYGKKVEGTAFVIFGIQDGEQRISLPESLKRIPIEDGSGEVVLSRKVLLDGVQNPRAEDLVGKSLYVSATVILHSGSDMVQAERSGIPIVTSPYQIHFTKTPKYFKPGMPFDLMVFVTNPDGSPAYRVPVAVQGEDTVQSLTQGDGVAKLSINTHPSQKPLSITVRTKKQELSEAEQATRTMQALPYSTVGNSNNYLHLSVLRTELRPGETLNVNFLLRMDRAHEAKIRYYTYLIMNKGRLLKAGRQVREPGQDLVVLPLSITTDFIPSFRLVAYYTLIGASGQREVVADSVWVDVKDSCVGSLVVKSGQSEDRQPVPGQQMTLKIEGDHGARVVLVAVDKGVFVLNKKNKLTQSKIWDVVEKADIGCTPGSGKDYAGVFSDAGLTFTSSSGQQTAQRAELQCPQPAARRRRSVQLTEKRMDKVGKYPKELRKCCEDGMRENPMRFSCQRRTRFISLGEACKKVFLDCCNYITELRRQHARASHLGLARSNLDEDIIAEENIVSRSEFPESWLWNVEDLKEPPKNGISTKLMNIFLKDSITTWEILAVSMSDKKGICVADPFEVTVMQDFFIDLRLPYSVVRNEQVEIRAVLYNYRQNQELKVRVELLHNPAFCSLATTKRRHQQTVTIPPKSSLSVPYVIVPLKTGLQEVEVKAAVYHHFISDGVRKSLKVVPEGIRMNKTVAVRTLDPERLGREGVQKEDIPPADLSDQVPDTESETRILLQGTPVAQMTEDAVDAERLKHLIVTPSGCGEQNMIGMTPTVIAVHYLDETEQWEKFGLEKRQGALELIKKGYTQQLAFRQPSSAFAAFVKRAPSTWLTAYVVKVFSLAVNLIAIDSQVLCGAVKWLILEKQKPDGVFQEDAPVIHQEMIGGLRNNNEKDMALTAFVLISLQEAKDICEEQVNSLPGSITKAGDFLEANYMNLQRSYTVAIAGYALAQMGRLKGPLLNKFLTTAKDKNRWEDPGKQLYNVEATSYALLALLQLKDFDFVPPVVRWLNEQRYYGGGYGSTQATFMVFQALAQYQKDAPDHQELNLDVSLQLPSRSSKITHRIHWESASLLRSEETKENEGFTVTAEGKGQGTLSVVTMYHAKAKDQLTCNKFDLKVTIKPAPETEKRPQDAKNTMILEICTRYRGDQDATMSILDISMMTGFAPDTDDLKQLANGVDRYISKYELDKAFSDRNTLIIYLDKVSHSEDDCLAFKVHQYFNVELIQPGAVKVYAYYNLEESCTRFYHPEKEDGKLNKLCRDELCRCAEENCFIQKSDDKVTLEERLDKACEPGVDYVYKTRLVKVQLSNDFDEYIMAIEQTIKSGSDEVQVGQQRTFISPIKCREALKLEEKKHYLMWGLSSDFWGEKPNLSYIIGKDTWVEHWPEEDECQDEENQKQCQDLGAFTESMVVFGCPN
# [2] = target: T1, C3 purified from fresh human plasma; test: ITC with C3; relative to peptide 14
# Description: (§1) ITC analysis. All ITC experiments were performed with the Microcal VP-ITC calorimeter (Microcal Inc., Northampton, Mass.), using protein concentrations of 1.8-5 μM C3 in the cell and peptide concentrations of 40-100 μM of individual compstatin analogs in the syringe. All titrations were performed in PBS (10 mM phosphate buffer with 150 mM NaCl, pH 7.4) at 25° C. using multiple peptide injections of 2-7 μL each. The raw isotherms were corrected for the heats of dilution by subtracting the isotherms representing peptide injections into the buffer. The resulting isotherms were fitted to a single site of sites models using Origin 7.0 software, and the model that produced the lowest χ² value was deemed to be appropriate for the respective data set. The Gibbs free energy was calculated as ΔG=ΔH−TΔS. Each experiment was repeated at least twice.
# (§2) Characterization of binding thermodynamics.
# [3] = target: T1, C3 purified from fresh human plasma; test: ITC; peptide titrated into C3, PBS, 25 C
# Description: as §1, §2
# biotinylated C3b [4] = target: biotinylated C3b (UniProt P01024); test: SPR on immobilised C3b; ratio relative to peptide 14
# [5] = target: T1, C3 purified from fresh human plasma; test: cell-based or functional assay; remark: listed apart in the source
# biotinylated C3b [6] = target: biotinylated C3b (UniProt P01024); test: SPR, Biacore 3000; biotinylated C3b on streptavidin chip, peptide injected; 1:1 fit
# [7] = target: T1, C3 purified from fresh human plasma; test: cell-based or functional assay; remark: listed apart in the source
# [8] = target: T1, C3 purified from fresh human plasma; test: cell-based or functional assay; remark: listed apart in the source
binder,measurement,setting,value
B1,"IC50 (CP), inhibition of classical pathway complement activation, ELISA",[1],154 µM
same,IC50-fold change relative to peptide 1,[1],0.02 fold
B2,"IC50 (CP), inhibition of classical pathway complement activation, ELISA",[1],25 µM
same,IC50-fold change relative to peptide 1,[1],0.1 fold
B3,"IC50 (CP), inhibition of classical pathway complement activation, ELISA",[1],1.43 µM
same,IC50-fold change relative to peptide 1,[1],1.7 fold
B4,"IC50 (CP), inhibition of classical pathway complement activation, ELISA",[1],33 µM
same,IC50-fold change relative to peptide 1,[1],0.07 fold
B5,-TΔΔS,[2],-5.44 kJ/mol
same,rKD ITC,[2],1.2 fold
same,ΔΔG,[2],-0.837 kJ/mol
same,ΔΔH,[2],4.18 kJ/mol
same,-TΔS,[3],23.8 kJ/mol
same,ΔG,[3],-45.6 kJ/mol
same,ΔH,[3],-69.5 kJ/mol
same,rKD SPR,biotinylated C3b [4],1.1 fold
same,rka,biotinylated C3b [4],1 fold
same,rkd,biotinylated C3b [4],1 fold
B6,"IC50 (CP), inhibition of classical pathway complement activation, ELISA",[1],94 µM
same,IC50-fold change relative to peptide 1,[1],0.03 fold
B7,"IC50 (CP), inhibition of classical pathway complement activation, ELISA",[1],44 µM
same,IC50-fold change relative to peptide 1,[1],0.06 fold
B8,"IC50 (nM, CP), inhibition of classical pathway complement activation, ELISA, human serum",[5],242 nM
same,IC50 fold change relative to peptide 17,[5],0.38 fold
same,Kd,biotinylated C3b [6],0.032 µM
same,koff,biotinylated C3b [6],0.0036 s⁻¹
same,kon,biotinylated C3b [6],100000 M⁻¹ s⁻¹
B9,"IC50 (CP), inhibition of classical pathway complement activation, ELISA",[1],32 µM
same,IC50-fold change relative to peptide 1,[1],0.08 fold
B10,"IC50 (nM, CP), inhibition of classical pathway complement activation, ELISA, human serum",[5],137 nM
same,IC50 fold change relative to peptide 17,[5],0.67 fold
same,Kd,biotinylated C3b [6],0.0047 µM
same,koff,biotinylated C3b [6],0.0056 s⁻¹
same,kon,biotinylated C3b [6],1.2e+06 M⁻¹ s⁻¹
B11,"IC50, inhibition of classical pathway complement activation, ELISA",[7],0.16 µM
B12,"IC50 (CP), inhibition of classical pathway complement activation, ELISA",[1],7.5 µM
same,IC50-fold change relative to peptide 1,[1],0.3 fold
B13,"IC50, inhibition of classical pathway complement activation, ELISA",[7],0.257 µM
same,"rP, relative potency compared to peptide 14",[8],0.8 fold
